Assay results published in FireProtDB (doi:10.1021/bi00210a045).

Settings: Escherichia coli (strain K12), Thermal, DSC, reversible: yes, whole UniProt chain shown
[1] = pH 2.5, 25 °C, glycine or acetate 5 mM or 10 mM
[2] = pH 10.3, 25 °C, glycine or CAPS 5 mM or 10 mM
[3] = pH 10.3, Sodium glycinate 50 mM

B1: Chemotaxis protein CheY wild type, P0AE67 (protein)
chain: MADKELKFLVVDDFSTMRRIVRNLLKELGFNNVEEAEDGVDALNKLQAGGYGFVISDWNMPNMDGLELLKTIRADGAMSALPVLMVTAEAKKENIIAAAQAGASGYVVKPFTAATLEEKLNKIFEKLGM
heat capacity change of unfolding [1]: 0.89 kcal/mol/K | unfolding free energy [1]: 2.89 kcal/mol | Tm (pH 7, Sodium phosphate 50 mM): 58 °C | heat capacity change of unfolding (pH 7, Sodium phosphate 50 mM): 0.69 kcal/mol/K | unfolding enthalpy (calorimetric) (pH 7, Sodium phosphate 50 mM): 83.7 kcal/mol | heat capacity change of unfolding [2]: 0.84 kcal/mol/K | unfolding free energy [2]: 4.9 kcal/mol | Tm [3]: 55 °C | heat capacity change of unfolding [3]: 0.84 kcal/mol/K | unfolding enthalpy (calorimetric) [3]: 67 kcal/mol
